Biological target: the molecule itself

B1: zSIGIRR-TIR (domain or fragment)
chain: KMYDAYISYVNNENDRKFVNFILKPHLENKYSHKLLLNNTNILPGAEPSAELLMNISRCQRLIVVLSQSYLEQEWCTTNFRQGLWHLIELSRKPIFIIFQSQQKQISQDISQQLRQHQPCITMITWGAHSMTPSSGFWKELALVMPRK
- stoichiometry N: 2

Source: paper PMC9213720 (iScience, 2022)
